T1: Bzz1-1, P38822
T1 sequence (P38822 478-572, looked up): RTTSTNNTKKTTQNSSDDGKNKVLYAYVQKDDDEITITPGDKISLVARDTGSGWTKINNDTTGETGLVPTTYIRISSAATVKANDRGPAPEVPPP

T2: Pin3, Q06449
T2 sequence (Q06449 53-122, looked up): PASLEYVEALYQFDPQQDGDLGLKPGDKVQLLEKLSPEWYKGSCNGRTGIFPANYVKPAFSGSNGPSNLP

T3: Nbp2, Q12163
T3 sequence (Q12163 103-180, looked up): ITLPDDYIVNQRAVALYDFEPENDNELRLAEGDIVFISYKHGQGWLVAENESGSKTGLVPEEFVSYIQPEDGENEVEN

T4: Sla1-3, P32790
T4 sequence (P32790 344-424, looked up): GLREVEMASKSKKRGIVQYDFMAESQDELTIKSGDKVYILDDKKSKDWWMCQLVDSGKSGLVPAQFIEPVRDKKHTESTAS

T5: Lsb3, P43603
T5 sequence (P43603 385-451, looked up): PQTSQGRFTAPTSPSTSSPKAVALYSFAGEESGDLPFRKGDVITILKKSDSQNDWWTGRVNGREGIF

T6: Pex13, P80667
T6 sequence (P80667 295-386, looked up): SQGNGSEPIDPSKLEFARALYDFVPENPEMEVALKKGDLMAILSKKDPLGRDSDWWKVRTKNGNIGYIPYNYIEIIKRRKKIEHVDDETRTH

T7: Cdc25, P04821
T7 sequence (P04821 50-136, looked up): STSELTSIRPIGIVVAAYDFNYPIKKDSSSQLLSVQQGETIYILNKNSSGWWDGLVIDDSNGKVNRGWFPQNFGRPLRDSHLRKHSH

T8: Myo5, Q04439
T8 sequence (Q04439 1072-1160, looked up): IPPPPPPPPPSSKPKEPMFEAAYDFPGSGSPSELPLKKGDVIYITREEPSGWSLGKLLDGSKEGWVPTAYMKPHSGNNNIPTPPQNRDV

T9: Boi2, P39969
T9 sequence (P39969 32-116, looked up): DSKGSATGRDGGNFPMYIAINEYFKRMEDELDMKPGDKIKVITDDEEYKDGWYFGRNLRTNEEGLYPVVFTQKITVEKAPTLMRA

T10: Bzz1-2, P38822
T10 sequence (P38822 568-633, looked up): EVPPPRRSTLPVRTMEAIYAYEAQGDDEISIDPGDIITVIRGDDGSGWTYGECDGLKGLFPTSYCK

T11: Bud14, P27637
T11 sequence (P27637 247-328, looked up): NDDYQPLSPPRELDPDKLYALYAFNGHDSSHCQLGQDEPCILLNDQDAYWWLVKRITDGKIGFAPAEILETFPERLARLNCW

T12: Bbc1, P47068
T12 sequence (P47068 1-78, looked up): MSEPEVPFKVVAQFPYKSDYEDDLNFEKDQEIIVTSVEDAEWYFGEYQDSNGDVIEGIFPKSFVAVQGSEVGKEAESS

T13: Boi1, P38041
T13 sequence (P38041 1-86, looked up): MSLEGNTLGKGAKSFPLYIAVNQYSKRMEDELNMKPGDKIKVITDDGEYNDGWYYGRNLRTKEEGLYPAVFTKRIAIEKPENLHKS

T14: Cyk3, Q07533
T14 sequence (Q07533 1-83, looked up): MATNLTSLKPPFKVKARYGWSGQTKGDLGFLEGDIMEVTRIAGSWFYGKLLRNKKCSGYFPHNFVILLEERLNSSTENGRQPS

T15: Hse1, P38753
T15 sequence (P38753 208-285, looked up): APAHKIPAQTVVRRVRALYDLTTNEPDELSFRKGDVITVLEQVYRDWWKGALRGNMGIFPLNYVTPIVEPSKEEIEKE

T16: Hof1, Q05080
T16 sequence (Q05080 590-669, looked up): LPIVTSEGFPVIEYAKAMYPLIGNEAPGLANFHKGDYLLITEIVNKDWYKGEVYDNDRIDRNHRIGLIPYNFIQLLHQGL

T17: Sla1-2, P32790
T17 sequence (P32790 60-140, looked up): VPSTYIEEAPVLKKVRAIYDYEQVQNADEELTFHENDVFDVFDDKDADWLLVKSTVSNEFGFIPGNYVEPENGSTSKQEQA

T18: Fus1, P11710
T18 sequence (P11710 432-512, looked up): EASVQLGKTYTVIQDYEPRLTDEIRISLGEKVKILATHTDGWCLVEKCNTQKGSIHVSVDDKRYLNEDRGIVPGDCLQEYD

T19: Lsb4, P32793
T19 sequence (P32793 402-468, looked up): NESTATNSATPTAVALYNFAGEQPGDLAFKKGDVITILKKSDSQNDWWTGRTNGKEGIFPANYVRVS

T20: Lsb1, P53281
T20 sequence (P53281 45-122, looked up): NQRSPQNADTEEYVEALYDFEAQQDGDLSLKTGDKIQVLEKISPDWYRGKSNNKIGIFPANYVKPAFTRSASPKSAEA

T21: Abp1, P15891
T21 sequence (P15891 535-592, looked up): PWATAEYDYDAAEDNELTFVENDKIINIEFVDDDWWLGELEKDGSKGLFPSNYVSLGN


How the values were obtained:
Assay in all cases: SPOT array
[1] = target: T1, Bzz1-1, P38822; details: median of control spots 4446
[2] = target: T2, Pin3, Q06449; details: median of control spots 2171
[3] = target: T3, Nbp2, Q12163; details: median of control spots 357
[4] = target: T4, Sla1-3, P32790; details: median of control spots 5475
[5] = target: GST; details: median of control spots 978
[6] = target: T5, Lsb3, P43603; details: median of control spots 406
[7] = target: T6, Pex13, P80667; details: median of control spots 1341
[8] = target: T7, Cdc25, P04821; details: median of control spots 969
[9] = target: T8, Myo5, Q04439; details: median of control spots 471
[10] = target: T9, Boi2, P39969; details: median of control spots 1161
[11] = target: T10, Bzz1-2, P38822; details: median of control spots 4538
[12] = target: T11, Bud14, P27637; details: median of control spots 956
[13] = target: T12, Bbc1, P47068; details: median of control spots 796
[14] = target: T13, Boi1, P38041; details: median of control spots 1162
[15] = target: T14, Cyk3, Q07533; details: median of control spots 1451
[16] = target: Sho1, P40073; details: median of control spots 1148
Sho1, P40073, sequence (P40073 287-367): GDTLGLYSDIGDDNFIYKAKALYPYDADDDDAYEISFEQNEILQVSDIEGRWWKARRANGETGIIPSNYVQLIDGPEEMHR

[17] = target: T15, Hse1, P38753; details: median of control spots 1727
[18] = target: Bem1-2, P29366; details: median of control spots 4347
Bem1-2, P29366, sequence (P29366 139-227): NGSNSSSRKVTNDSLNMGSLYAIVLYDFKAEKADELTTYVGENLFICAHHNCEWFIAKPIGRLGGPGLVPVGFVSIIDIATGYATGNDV

[19] = target: Myo3, P36006; details: median of control spots 468
[20] = target: T16, Hof1, Q05080; details: median of control spots 4086
[21] = target: Bem1-1, P29366; details: median of control spots 4282
Bem1-1, P29366, sequence (P29366 55-141): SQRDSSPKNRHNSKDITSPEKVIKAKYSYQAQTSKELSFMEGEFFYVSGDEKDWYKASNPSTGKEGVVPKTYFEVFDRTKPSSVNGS

[22] = target: T17, Sla1-2, P32790; details: median of control spots 712
[23] = target: T18, Fus1, P11710; details: median of control spots 1200
[24] = target: T19, Lsb4, P32793; details: median of control spots 397
[25] = target: T20, Lsb1, P53281; details: median of control spots 388
[26] = target: T21, Abp1, P15891; details: median of control spots 935
[27] = target: Rvs167, P39743; details: median of control spots 2707
Rvs167, P39743, sequence (P39743 419-482): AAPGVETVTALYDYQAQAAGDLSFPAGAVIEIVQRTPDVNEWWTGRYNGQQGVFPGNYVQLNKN

| Binder | SPOT intensity [1] | SPOT intensity [2] | SPOT intensity [3] | SPOT intensity [4] | SPOT intensity [5] | SPOT intensity [6] | SPOT intensity [7] | SPOT intensity [8] | SPOT intensity [9] | SPOT intensity [10] | SPOT intensity [11] | SPOT intensity [12] | SPOT intensity [13] | SPOT intensity [14] | SPOT intensity [15] | SPOT intensity [16] | SPOT intensity [17] | SPOT intensity [18] | SPOT intensity [19] | SPOT intensity [20] | further results |
| --- | --- | --- | --- | --- | --- | --- | --- | --- | --- | --- | --- | --- | --- | --- | --- | --- | --- | --- | --- | --- | --- |
| RKLRTVPGVPLIHLT | 1 | 3 | 0 | 5 | 1 | 2 | 4 | 0 | 0 | 0 | 0 | 3 | 34 | 0 | 0 | 6 | 0 | 0 | 8 | 2 | SPOT intensity [21]: 0; SPOT intensity [22]: 1; SPOT intensity [23]: 2; SPOT intensity [24]: 5; SPOT intensity [25]: 0; SPOT intensity [26]: 5; SPOT intensity [27]: 43 |
| NRLRKRLNLPSEISI | 6 | 17 | 32 | 141 | 1 | 3 | 2 | 42 | 2 | 3 | 13 | 7 | 74 | 12 | 8 | 58 | 99 | 3 | 4 | 45 | SPOT intensity [21]: 0; SPOT intensity [22]: 1; SPOT intensity [23]: 321; SPOT intensity [24]: 0; SPOT intensity [25]: 459; SPOT intensity [26]: 36; SPOT intensity [27]: 0 |

Reference: PMC2756588
